B1: DYRK-family kinase pom1 (Schizosaccharomyces pombe (strain ATCC 38366 / 972)), Q09690 (parent)
chain: MGYLQSQKAVSLGDENTDALFKLHTSNRKSANMFGIKSELLNPSELSAVGSYSNDICPNRQSSSSTAADTSPSTNASNTNISFPEQEHKDELFMNVEPKGVGSSMDNHAITIHHSTGNGLLRSSFDHDYRQKNSPRNSIHRLSNISIGNNPIDFESSQQNNPSSLNTSSHHRTSSISNSKSFGTSLSYYNRSSKPSDWNQQNNGGHLSGVISITQDVSSVPLQSSVFSSGNHAYHASMAPKRSGSWRHTNFHSTSHPRAASIGNKSGIPPVPTIPPNIGHSTDHQHPKANISGSLTKSSSESKNLSTIQSPLKTSNSFFKELSPHSQITLSNVKNNHSHVGSQTKSHSFATPSVFDNNKPVSSDNHNNTTTSSQVHPDSRNPDPKAAPKAVSQKTNVDGHRNHEAKHGNTVQNESKSQKSSNKEGRSSRGGFFSRLSFSRSSSRMKKGSKAKHEDAPDVPAIPHAYIADSSTKSSYRNGKKTPTRTKSRMQQFINWFKPSKERSSNGNSDSASPPPVPRLSITRSQVSREPEKPEEIPSVPPLPSNFKDKGHVPQQRSVSYTPKRSSDTSESLQPSLSFASSNVLSEPFDRKVADLAMKAINSKRINKLLDDAKVMQSLLDRACIITPVRNTEVQLINTAPLTEYEQDEINNYDNIYFTGLRNVDKRRSADENTSSNFGFDDERGDYKVVLGDHIAYRYEVVDFLGKGSFGQVLRCIDYETGKLVALKIIRNKKRFHMQALVETKILQKIREWDPLDEYCMVQYTDHFYFRDHLCVATELLGKNLYELIKSNGFKGLPIVVIKSITRQLIQCLTLLNEKHVIHCDLKPENILLCHPFKSQVKVIDFGSSCFEGECVYTYIQSRFYRSPEVILGMGYGTPIDVWSLGCIIAEMYTGFPLFPGENEQEQLACIMEIFGPPDHSLIDKCSRKKVFFDSSGKPRPFVSSKGVSRRPFSKSLHQVLQCKDVSFLSFISDCLKWDPDERMTPQQAAQHDFLTGKQDVRRPNTAPARQKFARPPNIETAPIPRPLPNLPMEYNDHTLPSPKEPSNQASNLVRSSDKFPNLLTNLDYSIISDNGFLRKPVEKSRP
partner: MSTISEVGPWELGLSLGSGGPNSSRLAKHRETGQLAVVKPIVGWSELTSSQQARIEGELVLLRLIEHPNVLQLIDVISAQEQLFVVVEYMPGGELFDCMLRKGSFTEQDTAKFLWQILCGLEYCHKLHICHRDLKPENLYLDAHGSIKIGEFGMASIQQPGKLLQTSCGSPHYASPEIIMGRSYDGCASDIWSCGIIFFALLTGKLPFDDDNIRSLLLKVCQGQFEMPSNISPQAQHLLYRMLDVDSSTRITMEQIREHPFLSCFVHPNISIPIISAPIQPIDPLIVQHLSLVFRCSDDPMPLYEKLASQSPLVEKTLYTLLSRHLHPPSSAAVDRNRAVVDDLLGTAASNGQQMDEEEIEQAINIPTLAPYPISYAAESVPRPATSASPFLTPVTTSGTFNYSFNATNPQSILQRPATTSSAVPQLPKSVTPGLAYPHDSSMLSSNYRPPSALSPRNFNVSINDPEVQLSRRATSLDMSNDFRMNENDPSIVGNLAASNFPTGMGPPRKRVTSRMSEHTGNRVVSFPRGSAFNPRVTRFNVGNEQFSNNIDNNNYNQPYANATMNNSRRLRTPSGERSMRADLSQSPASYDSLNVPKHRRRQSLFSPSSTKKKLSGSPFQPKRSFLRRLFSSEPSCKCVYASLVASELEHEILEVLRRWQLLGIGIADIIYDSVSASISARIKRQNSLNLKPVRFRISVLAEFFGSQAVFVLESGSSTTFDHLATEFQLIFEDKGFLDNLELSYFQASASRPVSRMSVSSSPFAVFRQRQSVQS

Variants of: B1
Settings: with cdr2_schpo cdr2, P87050

| Variant | effect of a mutation on the interaction |
| --- | --- |
| K728R | disrupting interaction |

From IntAct's records for PubMed 19474792
